Experiment [1] addresses HER2 on HER2-overexpressing tumor cell lines (UniProt P04626 23-1255, limits assumed). Put plainly: cell-based or functional assay.
Experiment [2] concerns the target human TfR on cells (human, UniProt P02786 1-760). Put plainly: cell-based or functional assay.
For experiment [3], the target named is T1, recombinant human TfR apical domain (human, UniProt P02786 198-378).
T1 construct: also called recombinant TfR apical domain; transferrin receptor protein 1
As to the kind of experiment: SPR (Biacore), protein captured on anti-human Fab chip, human TfR apical domain injected, 1:1 Langmuir fit. The method, then: Affinities of the bispecific proteins were measured by SPR using a Biacore T200 or a Biacore 8K. Biacore™ Series S CM5 sensor chips were immobilized with monoclonal mouse anti-human IgG (Fc) antibody for HER2 affinity measurements or mouse anti-human Fab for TfR affinity measurements (human antibody or Fab capture kit from GE Healthcare). Serial 3-fold dilutions of analyte (recombinant HER2 extracellular domain or recombinant TfR apical domain) were injected at a flow rate of […]. Each sample was analyzed using a 3-minute association and a 10-minute dissociation for HER2 extracellular domain binding and a 40-second association and a 3-minute dissociation for human TfR apical domain binding. After each injection, the chip was regenerated using 3 M MgCl₂ or 50 mM glycine at pH 2.0. Binding response was corrected by subtracting the RU from a flow cell capturing an irrelevant IgG at similar density. A 1:1 Languir model of simultaneous fitting of kon and koff was used for kinetics analysis. […] The two constructs are described below.
For orientation: Surface plasmon resonance follows binding to a sensor surface in real time, without labels.

Consider three molecules from patent US20240392035A1 (DENALI THERAPEUTICS, published 2024).

T1 sequence (P02786 198-378 limits assumed): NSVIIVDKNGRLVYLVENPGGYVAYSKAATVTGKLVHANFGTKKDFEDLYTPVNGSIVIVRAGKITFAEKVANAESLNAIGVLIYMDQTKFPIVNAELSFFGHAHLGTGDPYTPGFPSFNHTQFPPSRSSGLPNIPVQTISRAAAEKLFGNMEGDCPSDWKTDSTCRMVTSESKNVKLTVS

B1: anti-HER2_DIV/DII_scFv_1 (bispecific antibody, human IgG1, kappa, L234A L235A)
heavy 1: EVQLVESGGGLVQPGGSLRLSCAASGFTFTDYTMDWVRQAPGKGLEWVADVNPNSGGSIYNQRFKGRFTLSVDRSKNTLYLQMNSLRAEDTAVYYCARNLGPSFYFDYWGQGTLVTVSSASTKGPSVFPLAPSSKSTSGGTAALGCLVKDYFPEPVTVSWNSGALTSGVHTFPAVLQSSGLYSLSSVVTVPSSSLGTQTYICNVNHKPSNTKVDKKVEPKSCDKTHTCPPCPAPEAAGGPSVFLFPPKPKDTLMISRTPEVTCVVVDVSHEDPEVKFNWYVDGVEVHNAKTKPREEQYNSTYRVVSVLTVLHQDWLNGKEYKCKVSNKALPAPIEKTISKAKGQPREPQVYTLPPSRDELTKNQVSLWCLVKGFYPSDIAVEWESYGTEWSNYKTTPPVLDSDGSFFLYSKLTVSKEEWQQGFVFSCSVMHEALHNHYTQKSLSLSPGK
heavy 2: not shown
light: not shown
As for B1, the “maximum growth inhibition, OE19 cells, WST-1 assay” value in experiment [1] and in experiment [2] was around 80% in each case.

B2: Bispecific Protein #9 (bispecific antibody, human IgG1, kappa, L234A L235A)
heavy 1: EVQLVESGGGLVQPGGSLRLSCAASGFTFTDYTMDWVRQAPGKGLEWVADVNPNSGGSIYNQRFKGRFTLSVDRSKNTLYLQMNSLRAEDTAVYYCARNLGPSFYFDYWGQGTLVTVSSASTKGPSVFPLAPSSKSTSGGTAALGCLVKDYFPEPVTVSWNSGALTSGVHTFPAVLQSSGLYSLSSVVTVPSSSLGTQTYICNVNHKPSNTKVDKKVEPKSCDKTHTCPPCPAPEAAGGPSVFLFPPKPKDTLMISRTPEVTCVVVDVSHEDPEVKFNWYVDGVEVHNAKTKPREEQYNSTYRVVSVLTVLHQDWLNGKEYKCKVSNKALPAPIEKTISKAKGQPREPQVYTLPPSRDELTKNQVSLWCLVKGFYPSDIAVEWESYGTEWSNYKTTPPVLDSDGSFFLYSKLTVSKEEWQQGFVFSCSVMHEALHNHYTQKSLSLSPGK
heavy 2: not shown
light: not shown
In the case of B2, the Kd in experiment [3] turned out to be 500 nM.

B3: Bispecific Protein #2 (bispecific antibody, human IgG1, kappa, L234A L235A)
heavy 1: EVQLVESGGGLVQPGGSLRLSCAASGFTFTDYTMDWVRQAPGKGLEWVADVNPNSGGSIYNQRFKGRFTLSVDRSKNTLYLQMNSLRAEDTAVYYCARNLGPSFYFDYWGQGTLVTVSSASTKGPSVFPLAPSSKSTSGGTAALGCLVKDYFPEPVTVSWNSGALTSGVHTFPAVLQSSGLYSLSSVVTVPSSSLGTQTYICNVNHKPSNTKVDKKVEPKSCDKTHTCPPCPAPEAAGGPSVFLFPPKPKDTLMISRTPEVTCVVVDVSHEDPEVKFNWYVDGVEVHNAKTKPREEQYNSTYRVVSVLTVLHQDWLNGKEYKCKVSNKALPAPIEKTISKAKGQPREPQVYTLPPSRDELTKNQVSLWCLVKGFYPSDIAVEWESYGTEWSNYKTTPPVLDSDGSFFLYSKLTVSKEEWQQGFVFSCSVMHEALHNHYTQKSLSLSPGK
heavy 2: not shown
light: not shown
As for B3, in experiment [3], the Kd was found to be 480 nM.

As usually defined, the Kd is a measure of binding affinity in units of concentration.
